Data as given in patent publication US20260258397A1, “REAGENTS AND SYSTEMS FOR […]” (priority 2023, published 2026).
“Also recorded” adds a separate entry of the source. Like-named read-outs stand apart in the source and are kept apart here.

What was measured:
ΔN-HAB1 = test: Ligand/receptor-mediated PP2C (ΔN-HAB1 phosphatase) inhibition by recombinant PYR1 sensors; assay type: biochemical, Arabidopsis; settings: for response of evolved organophosphate receptors to native ligand ABA: HAB1 inhibition and Y2H assays, ABA tested at 5000 nM in Y2H; for EC50: read-out: EC50, receptor-mediated inhibition of HAB1 phosphatase activity in vitro
Protocol: Coding sequences of the cannabinoid sensors were cloned into the protein expression vector pET28a to encode 6×His-tag-receptor fusions.
(§1) High-affinity sensors were tested for cross reaction using both Y2H and in vitro PP2C assays. […] Similar methods were used to characterize PYR1^PIRI and PYR1^WIN sensor selectivity and sensitivity.

Luc^N-PYR1/Luc^C-ΔN-HAB1 = test: In vivo split NanoLuc luciferase complementation in yeast; assay type: cell-based, S. cerevisiae; settings: read-out: EC50 split luciferase reconstitution
Protocol: Ligand was added to yeast cultures 12 h prior to measuring cell luminescence. A sample of each culture was diluted to an OD600 of 0.2, 10 μL of which was transferred to a 96-well plate, the luciferase reagent mixture (Nano-Glo live cell substrate; Promega) diluted to a 1× concentration with DI water was added to the cell sample to a final volume of 200 μL. The relative luminescence signal (RLU) was measured using a Synergy™ Neo2 Multi-Mode Microplate Reader in luminescence detection mode for 30 minutes after the addition of the reagents. The RLU of each measured sample was taken as the average value of the time course once the signal had reached a plateau.
A protein complementation output assay of evolved PYR-based sensors was carried out by NanoLuc split luciferase (19). The larger fragment, LgBit (or Luc^N), was fused to N-terminus of PYR1 variants, while the small fragment, SmBit (or Luc^C) was fused to N-terminus of ΔN-HAB1. […] Ligand was added to yeast cultures 12 hour prior to measuring cell luminescence. […] The relative luminescence signal (RLU) was immediately measured continuously in a Synergy™ Neo2 Multi-Mode Microplate Reader over 30 minutes. The average value of RLU of each measured sample was taken once the measurements had reached a stable value. […]

HAB1 = test: Y2H X-gal staining of evolved sensors: ligand responsiveness and cross reaction; assay type: cell-based, Arabidopsis; settings: Y2H, FIG. 7; WIN 55,212-2 or 4F-MDMB-BUTINACA
Protocol: as §1
The PYL2 coding sequence cloned in the Y2H pBD vector was used as template to incorporate the corresponding PYR1^WIN and PYR1^4F homologous residues via site directed mutagenesis using the QuikChange Lightning Multi Site-Directed mutagenesis kit (Agilent Technologies). Resulting clones PYL2^WIN (K64Q, F165A, V1661) and PYL2^4F (H119Q, Y124G, F165V, V166G) were sequence confirmed and incorporated into MAV99 harboring pACT-HAB1 and tested for ligand activation using uracil-independent growth and X-gal staining experiments. The same method was used to generate a PYL2^WIN version in a protein expression vector for crystallization studies.

Row | Molecule | response of evolved organophosphate receptors to native ligand ABA (ΔN-HAB1) | EC50 (ΔN-HAB1; sensor PYR1^DIAZI, ligand diazinon) [nM] | EC50 (Luc^N-PYR1/Luc^C-ΔN-HAB1; Luc^N-PYR1^DIAZI/Luc^C-HAB1 in yeast, ligand diazinon) [nM] | EC50 (ΔN-HAB1; sensor PYR1^PIRI, ligand pirimiphos-methyl) [nM] | EC50 (Luc^N-PYR1/Luc^C-ΔN-HAB1; Luc^N-PYR1^PIRI/Luc^C-HAB1 in yeast, ligand pirimiphos-methyl) [nM] | ligand responsiveness of PYL2 transposed sensors (HAB1)
1 | PYR1^DIAZI (protein) MPSELTPGERSELKNSIAEFHTYQLDPGSCSSLHAQRIHAPPELVWSIVRRFDKPQTYKHFIKSCSVEQNFEMRVGCTRDYIVISGMPANTSTERLDILDDERRVTGYSIIGGEHRLTNYKSVTTVHRFEKENRIWTVVLESYVVDMPEGNSEDDTRVGVDTVVKLNLQKLATVAEAMARNSGDGSGSQVT | no longer bind the native ligand ABA; also recorded: neither receptor was activated by ABA | 36 | 24 |  |  | 
2 | PYR1^PIRI (protein) MPSELTPEERSELKNSIAEFHTYQLDPGSCSSLHAQRIHAPPELVWSIVRRFDKPQTYRHFIKSCSVEQNFEMRVGCTRDVIVISGLPANTMTERLDILDDERRVTGFSIIGGEHRLTSYKQVTTVHRFGKENRIWTVVLESYVVDMPEGNSEDDTRMTTDTVVKLNLQKLATAAEAMARNSGDGSGSQVT | no longer bind the native ligand ABA; also recorded: neither receptor was activated by ABA |  |  | 58 | 19 | 
3 | PYL2^WIN: PYL2 sensor (K64Q, F165A, V1661), SEQ ID NO: 37 (protein) MSSSPAVKGLTDEEQKTLEPVIKTYHQFEPDPTTCTSLITQRIHAPASVVWPLIRRFDNPERYQHFVKRCRLISGDGDVGSVREVTVISGLPASTSTERLEFVDDDHRVLSFRVVGGEHRLKNYKSVTSVNEFLNQDSGKVYTVVLESYTVDIPEGNTEEDTKMAIDTVVKLNLQKLGVAATSAPMHDDE |  |  |  |  |  | nM ligand responsiveness
